One substance from publication doi:10.1101/608273 can be followed below.

The target of the experiment is dNxf2^UBA (recombinant) (Drosophila) (UniProt Q9VV73). The experiment in a line: ITC. (ITC needs no label: the signal is the heat of the interaction.)

As usually defined, the Kd is the equilibrium constant for the complex coming apart.

Sequence of UniProt Q9VV73 (Q9VV73 whole entry): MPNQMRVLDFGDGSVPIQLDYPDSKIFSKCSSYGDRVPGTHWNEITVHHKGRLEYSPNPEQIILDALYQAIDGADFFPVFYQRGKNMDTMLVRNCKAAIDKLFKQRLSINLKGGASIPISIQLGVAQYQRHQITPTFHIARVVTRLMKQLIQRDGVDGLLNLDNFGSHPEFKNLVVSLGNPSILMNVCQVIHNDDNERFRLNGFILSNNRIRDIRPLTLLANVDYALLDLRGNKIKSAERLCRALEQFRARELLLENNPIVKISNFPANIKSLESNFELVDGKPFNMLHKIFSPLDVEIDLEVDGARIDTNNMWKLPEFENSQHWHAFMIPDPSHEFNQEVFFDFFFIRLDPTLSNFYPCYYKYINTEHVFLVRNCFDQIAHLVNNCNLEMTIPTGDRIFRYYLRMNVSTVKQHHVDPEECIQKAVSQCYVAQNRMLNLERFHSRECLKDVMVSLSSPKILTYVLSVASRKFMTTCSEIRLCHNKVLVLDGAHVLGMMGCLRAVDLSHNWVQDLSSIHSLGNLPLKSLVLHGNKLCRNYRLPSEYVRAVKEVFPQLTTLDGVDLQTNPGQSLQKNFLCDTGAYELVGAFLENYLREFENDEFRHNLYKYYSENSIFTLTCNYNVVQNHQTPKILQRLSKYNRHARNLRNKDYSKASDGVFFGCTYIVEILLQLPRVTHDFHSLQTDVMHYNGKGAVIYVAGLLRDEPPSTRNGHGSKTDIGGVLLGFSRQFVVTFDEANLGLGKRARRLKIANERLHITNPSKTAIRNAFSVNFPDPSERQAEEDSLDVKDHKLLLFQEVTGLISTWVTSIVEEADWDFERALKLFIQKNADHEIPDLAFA

For the substance “Purified Panx^NIR (from UniProt Q9W2H9 315-343) (domain or fragment)”, the Kd is 3.2 µM.
